Tested on: six V600E BRAF melanoma cell lines
Test: Screening of recombinant RTK ligands for ability to confer resistance to BRAFi (PLX4720) or MEKi (PD184352) (Table 4)
Assay type: cell-based, human
Parameters: ability of recombinant RTK ligand to confer resistance / ability of recombinant RTK ligand to confer resistance (screening value): scale not given here
In short: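 Six V600E BRAF melanoma lines treated with PLX4720 or PD184352 after addition of 22 recombinant RTK ligands, scored for drug resistance. Activation of selected RTKs confirmed by western blotting and high-throughput tyrosine kinase phosphorylation profiling.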

B1: GDNF (protein, UniProt P39905 78-211, looked up)
Glial cell line-derived …: SPDKQMAVLPRRERNRQAAAANPENSRGKGRRGQRGKNRGCVLTAIHLNVTDLGLGYETKEELIFRYCSGSCDAAETTYDKILKNLSRNRRLVSDKVGQACCRPIAFDDDLSFLDDNLVYHILRKHSAKRCGCI
ability of recombinant RTK ligand to confer resistance (A2058, PD184352 - 1 uM, ligand 0.4 ng/ml): 0.98
ability of recombinant RTK ligand to confer resistance (A2058, PD184352 - 1 uM, ligand 1.6 ng/ml): 1.03
ability of recombinant RTK ligand to confer resistance (A2058, PD184352 - 1 uM, ligand 6.25 ng/ml): 1.00
ability of recombinant RTK ligand to confer resistance (A2058, PD184352 - 1 uM, ligand 25 ng/ml): 0.93
ability of recombinant RTK ligand to confer resistance (A2058, PD184352 - 1 uM, ligand 100 ng/ml): 0.92
ability of recombinant RTK ligand to confer resistance (A2058, PLX4720 - 2 uM, ligand 0.4 ng/ml): 0.97
ability of recombinant RTK ligand to confer resistance (A2058, PLX4720 - 2 uM, ligand 1.6 ng/ml): 0.97
ability of recombinant RTK ligand to confer resistance (A2058, PLX4720 - 2 uM, ligand 6.25 ng/ml): 0.98
ability of recombinant RTK ligand to confer resistance (A2058, PLX4720 - 2 uM, ligand 25 ng/ml): 0.94
ability of recombinant RTK ligand to confer resistance (A2058, PLX4720 - 2 uM, ligand 100 ng/ml): 0.97
ability of recombinant RTK ligand to confer resistance (C32, PD184352 - 1 uM, ligand 0.4 ng/ml): 1.08
ability of recombinant RTK ligand to confer resistance (C32, PD184352 - 1 uM, ligand 1.6 ng/ml): 1.13
ability of recombinant RTK ligand to confer resistance (C32, PD184352 - 1 uM, ligand 6.25 ng/ml): 1.03
ability of recombinant RTK ligand to confer resistance (C32, PD184352 - 1 uM, ligand 25 ng/ml): 0.96
ability of recombinant RTK ligand to confer resistance (C32, PD184352 - 1 uM, ligand 100 ng/ml): 0.94
ability of recombinant RTK ligand to confer resistance (C32, PLX4720 - 2 uM, ligand 0.4 ng/ml): 1.04
ability of recombinant RTK ligand to confer resistance (C32, PLX4720 - 2 uM, ligand 1.6 ng/ml): 1.11
ability of recombinant RTK ligand to confer resistance (C32, PLX4720 - 2 uM, ligand 6.25 ng/ml): 1.03
ability of recombinant RTK ligand to confer resistance (C32, PLX4720 - 2 uM, ligand 25 ng/ml): 0.91
ability of recombinant RTK ligand to confer resistance (C32, PLX4720 - 2 uM, ligand 100 ng/ml): 0.94
ability of recombinant RTK ligand to confer resistance (Colo 829, PD184352 - 1 uM, ligand 0.4 ng/ml): 0.95
ability of recombinant RTK ligand to confer resistance (Colo 829, PD184352 - 1 uM, ligand 1.6 ng/ml): 0.96
ability of recombinant RTK ligand to confer resistance (Colo 829, PD184352 - 1 uM, ligand 6.25 ng/ml): 0.96
ability of recombinant RTK ligand to confer resistance (Colo 829, PD184352 - 1 uM, ligand 25 ng/ml): 1.07
ability of recombinant RTK ligand to confer resistance (Colo 829, PD184352 - 1 uM, ligand 100 ng/ml): 0.98
ability of recombinant RTK ligand to confer resistance (Colo 829, PLX4720 - 2 uM, ligand 0.4 ng/ml): 1.00
ability of recombinant RTK ligand to confer resistance (Colo 829, PLX4720 - 2 uM, ligand 1.6 ng/ml): 1.00
ability of recombinant RTK ligand to confer resistance (Colo 829, PLX4720 - 2 uM, ligand 6.25 ng/ml): 0.96
ability of recombinant RTK ligand to confer resistance (Colo 829, PLX4720 - 2 uM, ligand 25 ng/ml): 1.09
ability of recombinant RTK ligand to confer resistance (Colo 829, PLX4720 - 2 uM, ligand 100 ng/ml): 1.00
ability of recombinant RTK ligand to confer resistance (G-361, PD184352 - 1 uM, ligand 0.4 ng/ml): 1.00
ability of recombinant RTK ligand to confer resistance (G-361, PD184352 - 1 uM, ligand 1.6 ng/ml): 0.94
ability of recombinant RTK ligand to confer resistance (G-361, PD184352 - 1 uM, ligand 6.25 ng/ml): 1.04
ability of recombinant RTK ligand to confer resistance (G-361, PD184352 - 1 uM, ligand 25 ng/ml): 0.92
ability of recombinant RTK ligand to confer resistance (G-361, PD184352 - 1 uM, ligand 100 ng/ml): 0.95
ability of recombinant RTK ligand to confer resistance (G-361, PLX4720 - 2 uM, ligand 0.4 ng/ml): 0.94
ability of recombinant RTK ligand to confer resistance (G-361, PLX4720 - 2 uM, ligand 1.6 ng/ml): 0.94
ability of recombinant RTK ligand to confer resistance (G-361, PLX4720 - 2 uM, ligand 6.25 ng/ml): 0.93
ability of recombinant RTK ligand to confer resistance (G-361, PLX4720 - 2 uM, ligand 25 ng/ml): 0.87
ability of recombinant RTK ligand to confer resistance (G-361, PLX4720 - 2 uM, ligand 100 ng/ml): 0.79
ability of recombinant RTK ligand to confer resistance (SK-MEL-5, PD184352 - 1 uM, ligand 0.4 ng/ml): 0.99
ability of recombinant RTK ligand to confer resistance (SK-MEL-5, PD184352 - 1 uM, ligand 1.6 ng/ml): 0.89
ability of recombinant RTK ligand to confer resistance (SK-MEL-5, PD184352 - 1 uM, ligand 6.25 ng/ml): 1.03
ability of recombinant RTK ligand to confer resistance (SK-MEL-5, PD184352 - 1 uM, ligand 25 ng/ml): 0.94
ability of recombinant RTK ligand to confer resistance (SK-MEL-5, PD184352 - 1 uM, ligand 100 ng/ml): 0.93
ability of recombinant RTK ligand to confer resistance (SK-MEL-5, PLX4720 - 2 uM, ligand 0.4 ng/ml): 1.04
ability of recombinant RTK ligand to confer resistance (SK-MEL-5, PLX4720 - 2 uM, ligand 1.6 ng/ml): 0.71
ability of recombinant RTK ligand to confer resistance (SK-MEL-5, PLX4720 - 2 uM, ligand 6.25 ng/ml): 1.00
ability of recombinant RTK ligand to confer resistance (SK-MEL-5, PLX4720 - 2 uM, ligand 25 ng/ml): 1.01
ability of recombinant RTK ligand to confer resistance (SK-MEL-5, PLX4720 - 2 uM, ligand 100 ng/ml): 1.08
ability of recombinant RTK ligand to confer resistance (SK-MEL-28, PD184352 - 1 uM, ligand 0.4 ng/ml): 0.99
ability of recombinant RTK ligand to confer resistance (SK-MEL-28, PD184352 - 1 uM, ligand 1.6 ng/ml): 1.03
ability of recombinant RTK ligand to confer resistance (SK-MEL-28, PD184352 - 1 uM, ligand 6.25 ng/ml): 1.02
ability of recombinant RTK ligand to confer resistance (SK-MEL-28, PD184352 - 1 uM, ligand 25 ng/ml): 0.92
ability of recombinant RTK ligand to confer resistance (SK-MEL-28, PD184352 - 1 uM, ligand 100 ng/ml): 0.96
ability of recombinant RTK ligand to confer resistance (SK-MEL-28, PLX4720 - 2 uM, ligand 0.4 ng/ml): 1.04
ability of recombinant RTK ligand to confer resistance (SK-MEL-28, PLX4720 - 2 uM, ligand 1.6 ng/ml): 0.91
ability of recombinant RTK ligand to confer resistance (SK-MEL-28, PLX4720 - 2 uM, ligand 6.25 ng/ml): 1.05
ability of recombinant RTK ligand to confer resistance (SK-MEL-28, PLX4720 - 2 uM, ligand 25 ng/ml): 0.97
ability of recombinant RTK ligand to confer resistance (SK-MEL-28, PLX4720 - 2 uM, ligand 100 ng/ml): 1.01
